Our source for the Kd values is paper PMC12728192, “The dynamic lateral gate of the mitochondrial β-barrel biogenesis machinery is blocked by darobactin A” (Nature Communications, 2025).

The target in assay [1] is Thermothelomyces thermophilus SAM complex (sorting and assembly machinery complex; Sam50:Sam35:Sam37, monomer) (Thermothelomyces thermophilus). The assay is described as follows: MST; SAM complex labelled with Monolith RED-tris-NTA 2nd Generation, constant at 25 nM; serial dilution of peptide; size exclusion buffer (20 mM HEPES pH 8.0, 150 mM NaCl, 0.02% GDN); Monolith NT.115, premium capillaries. A general note: SEC sorts molecules by how far they enter the pores of the column.

Assay [2] concerns the target Thermothelomyces thermophilus SAM complex (10xHis-TEV-Sam50, Sam35 (no tag), TwinStrep-TEV-GG-Sam37) (Thermothelomyces thermophilus). The experiment in a line: MST; SAM complex labelled with Monolith RED-tris-NTA 2nd Generation, constant at 25 nM; serial dilution of peptide; size-exclusion buffer (20 mM HEPES pH 8.0, 150 mM NaCl, 0.02% GDN); Monolith NT.115, premium capillaries; MO.Affinity Analysis; one Kd for each biological replicate from 2-3 technical replicates.

“And” between values parts separate entries of the source, which are not always exact repeats. Equal entries are not always repeated. Where two headings read alike, the source gives them in different places.

In general, Kd refers to the equilibrium constant for the complex coming apart. A high value points to a looser complex. For the substance darobactin A (peptide), the Kd was 0.296 µM and 0.0956 to 0.377 µM in assay [1]; 0.228 µM in assay [2] (mean of biological replicates).
As for linear darobactin (peptide), the equilibrium dissociation constant (Kd) was 490 to 1200 µM in assay [1] and over 1170 µM in assay [2].
